Reference: patent publication US10736988B2, “Bone substitute nanocomposites and methods of synthesis using multiphosphorylated peptides” (UNIVERSITY OF PITTSBURGH—OF THE COMMONWEALTH SYSTEM OF …, priority 2012, dated 2020)
Several values for one entry are separate records, joined by “and”; a condition that tells them apart may be missing. Equal values may be shown once. Read-outs that look alike come from different tables or passages of the source.

Legend:
CK1 and CK2 = experiment: In vitro phosphorylation of peptide by CK1 and CK2 combined (32P scintillation); type: biochemical; conditions: for average number of phosphates per peptide: SD in parenthesis
Excerpt: (§1) R-SSD3 indicated by SEQ NO. […] ATP was used for the scintillation counter experiments.

type I collagen fibrils = target: T1, type I collagen fibrils (Rattus norvegicus, UniProt P02454+P02466); experiment: On-grid mineralization of reconstituted collagen fibrils (TEM/SAED)
T1 construct: from an acidic rat tail collagen solution; from tissue; host or cells: rat tail
Experimental: Mineralization experiments were carried out using a modification of an “on grid” mineralization setup developed in a lab and published in the art. The type I collagen fibrils were reconstituted on carbon-coated Cu grids, mesh #400 (EMS, Hatfield, Pa.) from an acidic rat tail collagen solution. Concentrated 10×PBS (mono- and disodium phosphate totaling 40 mM and 1.5 M NaCl), phosphorylated with CK2 and nonphosphorylated protein stock solution, […] to obtain 4 mM PBS, 1.67 mM Ca and 15 μg/ml peptide. Prior to the experiments, the pH of concentrated 10×PBS was adjusted such that upon mixing, the pH of the final mineralization solution was 7.8. The TEM grids coated with reconstituted collagen fibrils were floated on 50 μL droplets of the mineralization solution at 100% humidity for 16 hours at 37° C.
TEM and selected area electron diffraction (SAED) studies were conducted using JEOL 1210 operated at 100 kV. The micrographs were recorded using an AMT CCD camera (AMT, Danvers, Mass.). An aluminum-coated TEM grid (EMS Hatfield, Pa.) was used as a standard for the calibration of SAED patterns for d-spacing calculations. The micrographs were analyzed using an ImageJ 1.38 software package (Bethesda, Md.).

mixture of CK1 and CK2 = experiment: Mass spectrometry identification of phosphates incorporated by a mixture of CK1 and CK2; type: biochemical; conditions: MS, one hour
Experimental: For mass spectrometry (MS) analysis, the reaction was performed as above, however, radiolabeled ATP was not used and the reaction mixture was transferred into a Tube-O-DIALYZER with a MWCO of 1000 and dialyzed overnight.
For MALDI-TOF-MS analysis, the peptides and CHCA matrix (α-cyano-4-hydroxycinnamic acid, 10 μg/μl, in 50% acetonitrile containing 0.1% trifluoroacetic acid) solutions were premixed in a small Eppendorf tube, spun down and remixed three times, then applied directly to the sample plate. Once applied to the target, the sample was allowed to air dry. The samples were analyzed using an Applied Biosystems (Foster City, Calif.) Voyager DE Pro or 4700 Proteomics Analyzer TOF/TOF instrument. The samples were also analyzed by LC-MS/MS on a ThermoFischer (Waltham, Mass.) Surveyor LC System coupled to a ThermoFischer LCQ Deca XP Plus mass spectrometer equipped with a nanospray ion source and also a ThermoFischer LTQ-XL instrument. The LC System contained a sample trap followed by a C18 column (BioBasic C18 PicoFrit column, 10 cm×75 μM, New Objective, Inc., Woburn, Mass.). […]
Upon elution of the C18 column, the analyte was ionized by nano-capillary ESI. […] The MS/MS spectra were analyzed with BioWorks 3.2 Browser with the Sequest search engine. […]

Casein Kinase 1 (CK1) = conditions: for average number of phosphates per peptide: SD in parenthesis
Experimental: R-SSD3 indicated by SEQ NO. 2 was phosphorylated in vitro by CK1, CK2 or a mixture of both kinases. ATP was used as a source of phosphate; and [γ-^32P] ATP was used for the scintillation counter experiments. The standard assay mixture consisted of 50 mM Tris-HCl, pH 7.4, 5 mM MgCl2, 1 mM EGTA and 10 mM β-glycerophosphate. […] The samples were vortexed and kept for 20 minutes at room temperature before transferring into a water bath at 30° C. The reaction was started by adding 10 μl of ATP (cold Mg-ATP and 1 μCi of [γ-^32P] ATP) and the reaction mixture was incubated at 30° C. in a shaker for 1 hr. To assess the kinetics of the reactions, phosphorylation was allowed to proceed for 20 minutes, 1 hour, 4 hours and 24 hours before the reaction was stopped. The reaction was terminated by adding 40 μl of loading Tricine sample buffer (200 mM Tris-HCl, pH 6.8, 2% SDS, 40% glycerol, 0.04% Coomassie G-250 dye). The samples were then boiled in a water bath for five minutes and subjected to electrophoresis on 16.5% Tris-Tricine gel run using Tris-Tricine/SDS buffer (containing 100 mM Tris, 100 mM Tricine, 0.1% SDS, pH 8.3) at 100V for 1.5 hours.
In vitro phosphorylation assay was performed according to conventional procedure. 25 ul reactions containing 1 μg of R-SSD3 peptide indicated by SEQ NO. 2, in the presence and absence of 300 ng of either CK1 or CK2 or both containing 10 μCi ^32P γ [ATP]. The reactions were performed in triplicate at 30° C. for 1 hour, 4 hours and 24 hours using one batch of radiolabeled ATP and enzymes from a single lot.
The reaction products were purified using SDS-PAGE, visualized by autoradiography, and band intensities were quantified using a Kodak 1D 3.6 imaging system. After autoradiography, the gel was overlaid on the autoradiogram, the individual protein bands were excised and ^32P incorporation was determined using a liquid scintillation counter (Beckman LS6500 system). To calculate the number of moles of phosphates transferred to 1 ug of peptide ([…]) in the kinase reaction, the mean counts per minute obtained in the kinase reactions from triplicates (minus blank) are divided by the specific activity of the ^32Pγ[ATP] in the kinase assay, as follows.

Casein Kinase 2 (CK2) = target: T2, Casein Kinase 2 (CK2) (Homo sapiens, UniProt P68400); experiment: In vitro phosphorylation of peptide by CK2 (32P scintillation / autoradiography); type: biochemical; conditions: for average number of phosphates per peptide: SD in parenthesis
T2 construct: purchased Millipore Inc. 14-197
Excerpt: as §1

T2 sequence (P68400 whole entry): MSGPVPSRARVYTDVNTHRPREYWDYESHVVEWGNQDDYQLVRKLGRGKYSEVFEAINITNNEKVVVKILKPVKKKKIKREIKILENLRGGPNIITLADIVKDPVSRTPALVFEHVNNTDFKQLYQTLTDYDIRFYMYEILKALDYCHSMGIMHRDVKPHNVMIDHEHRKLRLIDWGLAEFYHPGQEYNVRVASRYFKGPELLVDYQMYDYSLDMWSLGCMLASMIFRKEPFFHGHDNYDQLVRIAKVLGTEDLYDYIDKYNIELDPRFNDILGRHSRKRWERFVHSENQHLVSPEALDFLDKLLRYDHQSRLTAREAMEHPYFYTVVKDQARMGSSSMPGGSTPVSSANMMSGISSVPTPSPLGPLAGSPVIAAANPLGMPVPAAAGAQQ
T2 sequence (P67870 whole entry partner): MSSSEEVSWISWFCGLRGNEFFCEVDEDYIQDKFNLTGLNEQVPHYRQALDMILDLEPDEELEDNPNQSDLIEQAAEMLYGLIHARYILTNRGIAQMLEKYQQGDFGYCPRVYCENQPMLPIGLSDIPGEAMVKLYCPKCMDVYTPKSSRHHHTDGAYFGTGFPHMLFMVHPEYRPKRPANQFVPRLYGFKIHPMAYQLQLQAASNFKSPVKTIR
T1 sequence (P02454 152-1207 limits assumed): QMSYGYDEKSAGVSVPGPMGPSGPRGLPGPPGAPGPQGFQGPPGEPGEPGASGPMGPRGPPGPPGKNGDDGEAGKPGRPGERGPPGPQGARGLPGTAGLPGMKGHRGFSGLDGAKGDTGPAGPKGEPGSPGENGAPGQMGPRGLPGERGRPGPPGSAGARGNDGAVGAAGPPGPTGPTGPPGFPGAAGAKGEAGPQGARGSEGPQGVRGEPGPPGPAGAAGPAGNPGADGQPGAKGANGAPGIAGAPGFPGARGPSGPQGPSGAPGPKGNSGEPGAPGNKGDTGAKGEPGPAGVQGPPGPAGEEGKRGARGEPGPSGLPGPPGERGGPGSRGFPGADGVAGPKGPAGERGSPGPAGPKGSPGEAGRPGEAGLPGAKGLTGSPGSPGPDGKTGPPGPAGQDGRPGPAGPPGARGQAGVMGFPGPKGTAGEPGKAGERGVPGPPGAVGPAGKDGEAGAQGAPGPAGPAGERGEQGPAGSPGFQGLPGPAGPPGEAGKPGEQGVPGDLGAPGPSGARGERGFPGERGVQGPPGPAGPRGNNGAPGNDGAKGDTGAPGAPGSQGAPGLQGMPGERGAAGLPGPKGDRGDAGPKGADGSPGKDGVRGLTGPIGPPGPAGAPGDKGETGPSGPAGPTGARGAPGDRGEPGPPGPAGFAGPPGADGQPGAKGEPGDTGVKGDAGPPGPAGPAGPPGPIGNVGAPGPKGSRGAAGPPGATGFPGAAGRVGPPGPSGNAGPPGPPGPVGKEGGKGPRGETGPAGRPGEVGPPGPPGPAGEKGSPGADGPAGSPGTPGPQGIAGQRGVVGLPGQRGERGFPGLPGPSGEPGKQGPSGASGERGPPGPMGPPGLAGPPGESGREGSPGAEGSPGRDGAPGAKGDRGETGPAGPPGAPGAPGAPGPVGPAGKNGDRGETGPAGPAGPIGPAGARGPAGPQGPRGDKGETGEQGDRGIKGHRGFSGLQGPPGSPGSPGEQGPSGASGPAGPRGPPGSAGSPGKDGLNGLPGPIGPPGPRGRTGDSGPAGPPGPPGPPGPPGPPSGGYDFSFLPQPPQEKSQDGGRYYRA
T1 sequence (P02466 86-1125 limits assumed): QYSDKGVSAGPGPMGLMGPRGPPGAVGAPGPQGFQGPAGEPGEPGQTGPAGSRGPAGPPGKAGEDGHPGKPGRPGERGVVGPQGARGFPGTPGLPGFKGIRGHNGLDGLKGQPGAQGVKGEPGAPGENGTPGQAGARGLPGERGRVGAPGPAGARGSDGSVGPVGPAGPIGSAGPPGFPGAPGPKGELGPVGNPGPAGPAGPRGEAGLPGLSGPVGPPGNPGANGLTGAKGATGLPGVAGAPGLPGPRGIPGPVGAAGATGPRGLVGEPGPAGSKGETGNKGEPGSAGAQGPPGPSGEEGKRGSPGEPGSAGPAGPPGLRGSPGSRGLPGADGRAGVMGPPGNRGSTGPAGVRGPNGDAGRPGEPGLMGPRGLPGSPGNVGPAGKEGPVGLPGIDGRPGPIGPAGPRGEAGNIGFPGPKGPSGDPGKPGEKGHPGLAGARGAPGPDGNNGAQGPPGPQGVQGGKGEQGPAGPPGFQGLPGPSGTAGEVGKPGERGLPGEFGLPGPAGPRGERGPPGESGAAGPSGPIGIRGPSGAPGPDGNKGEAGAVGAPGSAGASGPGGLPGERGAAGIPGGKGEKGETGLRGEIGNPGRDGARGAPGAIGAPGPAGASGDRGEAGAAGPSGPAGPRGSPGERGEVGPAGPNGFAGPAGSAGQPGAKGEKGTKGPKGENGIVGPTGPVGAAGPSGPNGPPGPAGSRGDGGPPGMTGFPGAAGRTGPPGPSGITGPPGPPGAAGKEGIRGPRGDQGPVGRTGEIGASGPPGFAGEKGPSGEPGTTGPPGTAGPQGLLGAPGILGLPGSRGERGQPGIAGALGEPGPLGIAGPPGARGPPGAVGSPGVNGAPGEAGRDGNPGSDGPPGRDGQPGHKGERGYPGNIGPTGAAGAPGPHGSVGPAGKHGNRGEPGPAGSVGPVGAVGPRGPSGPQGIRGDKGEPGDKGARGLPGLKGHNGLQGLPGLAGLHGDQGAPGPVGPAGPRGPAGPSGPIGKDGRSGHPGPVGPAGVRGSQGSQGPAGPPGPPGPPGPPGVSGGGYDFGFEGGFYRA

B1: … (peptide)
chain: RRRDEDESSDSSDSSDSSDSSDSSDSSDSSDSSDSSDSSDSSDSSDSSDSSDSSDSSDSSDSSDSSDDEG
modifications: derived from consensus mammalian sequence of DSPP; (8)..(68) [Asp Ser Ser] repeats (n varies from 2 to 20); (1)..(3) Insertion of 3 Arg at the N terminus of the peptide; (4)..(7) Casein kinase 1 recognition motif; (69)..(71) Casein kinase 2 recognition motif
share of all serines phosphorylated (CK1 and CK2; CK1+CK2 group, 24 hours): 58%
average number of phosphates per peptide (CK1 and CK2; CK1 and CK2, 1 hour): 0.0191 (0.007) phosphates per peptide
average number of phosphates per peptide (CK1 and CK2; CK1 and CK2, 4 hours): 0.343 (0.124) phosphates per peptide
average number of phosphates per peptide (CK1 and CK2; CK1 and CK2, 24 hours): 3.5 phosphates per peptide and 3.4555 (1.755) phosphates per peptide
collagen fibril mineralization pattern (type I collagen fibrils; 15 μg/ml peptide, 16 hours, 37° C., pH 7.8, TEM): randomly oriented crystals formed throughout the grid
mineral nucleation outside of the collagen fibrils (type I collagen fibrils; TEM, phosphorylated peptide experiments): suppressed mineral nucleation outside of the collagen fibrils
maximum number of phosphates incorporated onto the peptide (mixture of CK1 and CK2): four out of six possible
average number of phosphates per peptide (Casein Kinase 1 (CK1); CK1, 1 hour): 0.006 (0.002) phosphates per peptide
average number of phosphates per peptide (Casein Kinase 1 (CK1); CK1, 4 hours): 0.139 (0.103) phosphates per peptide
average number of phosphates per peptide (Casein Kinase 1 (CK1); CK1, 24 hours): 1.8 phosphates per peptide and 1.778 (1.196) phosphates per peptide
share of all serines phosphorylated (Casein Kinase 1 (CK1); CK1 group, 24 hours): 30%
average number of phosphates per peptide (Casein Kinase 2 (CK2); CK2, 1 hour): 0.0148 (0.015) phosphates per peptide
average number of phosphates per peptide (Casein Kinase 2 (CK2); CK2, 4 hours): 0.435 (0.099) phosphates per peptide
average number of phosphates per peptide (Casein Kinase 2 (CK2); CK2, 24 hours): 4.4 phosphates per peptide and 4.354 (0.957) phosphates per peptide
share of all serines phosphorylated (Casein Kinase 2 (CK2); CK2 group, 24 hours): 73%
